Biological target: T1, human GPRC5D (human, UniProt Q9NZD1 1-345)
T1 construct: on transfected HEK293 or RBL cells, or endogenous on MM1R, H929, OPM2, LP-1, JIM3 and patient plasma cells; also called G-protein coupled receptor family C group 5 member D; hGPRC5D
Assay: FACS, human GPRC5D cells

T1 sequence (Q9NZD1 whole entry): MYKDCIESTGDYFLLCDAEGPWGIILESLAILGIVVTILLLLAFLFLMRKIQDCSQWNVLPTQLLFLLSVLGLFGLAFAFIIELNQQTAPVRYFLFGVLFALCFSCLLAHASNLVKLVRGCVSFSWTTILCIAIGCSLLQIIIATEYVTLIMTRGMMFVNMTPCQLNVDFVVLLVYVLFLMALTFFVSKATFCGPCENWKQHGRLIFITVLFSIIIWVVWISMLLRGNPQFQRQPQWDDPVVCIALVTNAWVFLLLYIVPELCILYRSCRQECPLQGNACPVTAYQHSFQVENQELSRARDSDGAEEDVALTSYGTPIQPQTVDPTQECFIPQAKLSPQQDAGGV

B1: GC5B471 (antibody, V domains shown)
VH: EVQLVQSGAEVKKPGESLKISCKGSGYSFTSYYIGWVRQMPGKGLEWMGIIYPGASDTRYSPSFQGQVTISADKSISTAYLQWSSLKASDTAMYYCARVYSFGGRHKALFDYWGQGTLVTVSS
VL: EIVLTQSPATLSLSPGERATLSCRASQSVSSYLAWYQQKPGQAPRLLIYDASNRATGIPARFSGSGSGTDFTLTISSLEPEDFAVYYCQQRSNWPLTFGQGTKVEIK
notes: GC5B164 PTM variant, Hc GC5H278
B1: binds.

B2: GC5B472 (antibody, V domains shown)
VH: EVQLVQSGAEVKKPGESLKISCKGSGYSFTSYVIGWVRQMPGKGLEWMGIIYPGASDTRYSPSFQGQVTISADKSISTAYLQWSSLKASDTAMYYCARVYSFGGRHKALFDYWGQGTLVTVSS
VL: EIVLTQSPATLSLSPGERATLSCRASQSVSSYLAWYQQKPGQAPRLLIYDASNRATGIPARFSGSGSGTDFTLTISSLEPEDFAVYYCQQRSNWPLTFGQGTKVEIK
notes: GC5B164 PTM variant, Hc GC5H277
B2: binds.

B3: GC5B487 (antibody, V domains shown)
VH: EVQLVQSGAEVKKPGESLKISCKGSGYSFTSYVIGWVRQMPGKGLEWMGIIYPGESDTRYSPSFQGQVTISADKSISTAYLQWSSLKASDTAMYYCARVYSFGGRHKALFDYWGQGTLVTVSS
VL: EIVLTQSPATLSLSPGERATLSCRASQSVSSYLAWYQQKPGQAPRLLIYDASNRATGIPARFSGSGSGTDFTLTISSLEPEDFAVYYCQQRSNWPLTFGQGTKVEIK
notes: GC5B164 PTM variant, Hc GC5H262
B3: binds.

B4: GC5B486 (antibody, V domains shown)
VH: EVQLVQSGAEVKKPGESLKISCKGSGYSFTSYYIGWVRQMPGKGLEWMGIIYPGESDTRYSPSFQGQVTISADKSISTAYLQWSSLKASDTAMYYCARVYSFGGRHKALFDYWGQGTLVTVSS
VL: EIVLTQSPATLSLSPGERATLSCRASQSVSSYLAWYQQKPGQAPRLLIYDASNRATGIPARFSGSGSGTDFTLTISSLEPEDFAVYYCQQRSNWPLTFGQGTKVEIK
notes: GC5B164 PTM variant, Hc GC5H263
B4: binds.

B5: GC5B474 (antibody, V domains shown)
VH: EVQLVQSGAEVKKPGESLKISCKGSGYSFTSYGIGWVRQMPGKGLEWMGIIYPGASDTRYSPSFQGQVTISADKSISTAYLQWSSLKASDTAMYYCARVYSFGGRHKALFDYWGQGTLVTVSS
VL: EIVLTQSPATLSLSPGERATLSCRASQSVSSYLAWYQQKPGQAPRLLIYDASNRATGIPARFSGSGSGTDFTLTISSLEPEDFAVYYCQQRSNWPLTFGQGTKVEIK
notes: GC5B164 PTM variant, Hc GC5H275
B5: binds.

B6: GC5B477 (antibody, V domains shown)
VH: EVQLVQSGAEVKKPGESLKISCKGSGYSFTSYVIGWVRQMPGKGLEWMGIIYPGSSDTRYSPSFQGQVTISADKSISTAYLQWSSLKASDTAMYYCARVYSFGGRHKALFDYWGQGTLVTVSS
VL: EIVLTQSPATLSLSPGERATLSCRASQSVSSYLAWYQQKPGQAPRLLIYDASNRATGIPARFSGSGSGTDFTLTISSLEPEDFAVYYCQQRSNWPLTFGQGTKVEIK
notes: GC5B164 PTM variant, Hc GC5H272
B6: binds.

B7: GC5B475 (antibody, V domains shown)
VH: EVQLVQSGAEVKKPGESLKISCKGSGYSFTSYAIGWVRQMPGKGLEWMGIIYPGASDTRYSPSFQGQVTISADKSISTAYLQWSSLKASDTAMYYCARVYSFGGRHKALFDYWGQGTLVTVSS
VL: EIVLTQSPATLSLSPGERATLSCRASQSVSSYLAWYQQKPGQAPRLLIYDASNRATGIPARFSGSGSGTDFTLTISSLEPEDFAVYYCQQRSNWPLTFGQGTKVEIK
notes: GC5B164 PTM variant, Hc GC5H274
B7: binds.

B8: GC5B483 (antibody, IgG4, V domains shown)
VH: EVQLVQSGAEVKKPGESLKISCKGSGYSFTSYFIGWVRQMPGKGLEWMGIIYPGKSDTRYSPSFQGQVTISADKSISTAYLQWSSLKASDTAMYYCARVYSFGGRHKALFDYWGQGTLVTVSS
VL: EIVLTQSPATLSLSPGERATLSCRASQSVSSYLAWYQQKPGQAPRLLIYDASNRATGIPARFSGSGSGTDFTLTISSLEPEDFAVYYCQQRSNWPLTFGQGTKVEIK
notes: GC5B164 variant D55K, W33F; IgG4 S228P, L234A, L235A; also called GC5H266
B8: binds.

B9: GC5B476 (antibody, V domains shown)
VH: EVQLVQSGAEVKKPGESLKISCKGSGYSFTSYYIGWVRQMPGKGLEWMGIIYPGSSDTRYSPSFQGQVTISADKSISTAYLQWSSLKASDTAMYYCARVYSFGGRHKALFDYWGQGTLVTVSS
VL: EIVLTQSPATLSLSPGERATLSCRASQSVSSYLAWYQQKPGQAPRLLIYDASNRATGIPARFSGSGSGTDFTLTISSLEPEDFAVYYCQQRSNWPLTFGQGTKVEIK
notes: GC5B164 PTM variant, Hc GC5H273
B9: binds.

B10: GC5B478 (antibody, V domains shown)
VH: EVQLVQSGAEVKKPGESLKISCKGSGYSFTSYFIGWVRQMPGKGLEWMGIIYPGSSDTRYSPSFQGQVTISADKSISTAYLQWSSLKASDTAMYYCARVYSFGGRHKALFDYWGQGTLVTVSS
VL: EIVLTQSPATLSLSPGERATLSCRASQSVSSYLAWYQQKPGQAPRLLIYDASNRATGIPARFSGSGSGTDFTLTISSLEPEDFAVYYCQQRSNWPLTFGQGTKVEIK
notes: GC5B164 PTM variant, Hc GC5H271
B10: binds.

B11: GC5B480 (antibody, V domains shown)
VH: EVQLVQSGAEVKKPGESLKISCKGSGYSFTSYAIGWVRQMPGKGLEWMGIIYPGSSDTRYSPSFQGQVTISADKSISTAYLQWSSLKASDTAMYYCARVYSFGGRHKALFDYWGQGTLVTVSS
VL: EIVLTQSPATLSLSPGERATLSCRASQSVSSYLAWYQQKPGQAPRLLIYDASNRATGIPARFSGSGSGTDFTLTISSLEPEDFAVYYCQQRSNWPLTFGQGTKVEIK
notes: GC5B164 PTM variant, Hc GC5H269
B11: binds.

B12: GC5B479 (antibody, V domains shown)
VH: EVQLVQSGAEVKKPGESLKISCKGSGYSFTSYGIGWVRQMPGKGLEWMGIIYPGSSDTRYSPSFQGQVTISADKSISTAYLQWSSLKASDTAMYYCARVYSFGGRHKALFDYWGQGTLVTVSS
VL: EIVLTQSPATLSLSPGERATLSCRASQSVSSYLAWYQQKPGQAPRLLIYDASNRATGIPARFSGSGSGTDFTLTISSLEPEDFAVYYCQQRSNWPLTFGQGTKVEIK
notes: GC5B164 PTM variant, Hc GC5H270
B12: binds.

B13: GC5B473 (antibody, V domains shown)
VH: EVQLVQSGAEVKKPGESLKISCKGSGYSFTSYFIGWVRQMPGKGLEWMGIIYPGASDTRYSPSFQGQVTISADKSISTAYLQWSSLKASDTAMYYCARVYSFGGRHKALFDYWGQGTLVTVSS
VL: EIVLTQSPATLSLSPGERATLSCRASQSVSSYLAWYQQKPGQAPRLLIYDASNRATGIPARFSGSGSGTDFTLTISSLEPEDFAVYYCQQRSNWPLTFGQGTKVEIK
notes: GC5B164 PTM variant, Hc GC5H276
B13: binds.

B14: GC5B484 (antibody, V domains shown)
VH: EVQLVQSGAEVKKPGESLKISCKGSGYSFTSYGIGWVRQMPGKGLEWMGIIYPGKSDTRYSPSFQGQVTISADKSISTAYLQWSSLKASDTAMYYCARVYSFGGRHKALFDYWGQGTLVTVSS
VL: EIVLTQSPATLSLSPGERATLSCRASQSVSSYLAWYQQKPGQAPRLLIYDASNRATGIPARFSGSGSGTDFTLTISSLEPEDFAVYYCQQRSNWPLTFGQGTKVEIK
notes: GC5B164 PTM variant, Hc GC5H265
B14: binds.

B15: GC5B481 (antibody, V domains shown)
VH: EVQLVQSGAEVKKPGESLKISCKGSGYSFTSYYIGWVRQMPGKGLEWMGIIYPGKSDTRYSPSFQGQVTISADKSISTAYLQWSSLKASDTAMYYCARVYSFGGRHKALFDYWGQGTLVTVSS
VL: EIVLTQSPATLSLSPGERATLSCRASQSVSSYLAWYQQKPGQAPRLLIYDASNRATGIPARFSGSGSGTDFTLTISSLEPEDFAVYYCQQRSNWPLTFGQGTKVEIK
notes: GC5B164 PTM variant, Hc GC5H268
B15: binds.

B16: GC5B488 (antibody, V domains shown)
VH: EVQLVQSGAEVKKPGESLKISCKGSGYSFTSYFIGWVRQMPGKGLEWMGIIYPGESDTRYSPSFQGQVTISADKSISTAYLQWSSLKASDTAMYYCARVYSFGGRHKALFDYWGQGTLVTVSS
VL: EIVLTQSPATLSLSPGERATLSCRASQSVSSYLAWYQQKPGQAPRLLIYDASNRATGIPARFSGSGSGTDFTLTISSLEPEDFAVYYCQQRSNWPLTFGQGTKVEIK
notes: GC5B164 PTM variant, Hc GC5H261
B16: binds.

B17: GC5B492 (antibody, V domains shown)
VH: EVQLVQSGAEVKKPGESLKISCKGSGYSFTSYVIGWVRQMPGKGLEWMGIIYPGYSDTRYSPSFQGQVTISADKSISTAYLQWSSLKASDTAMYYCARVYSFGGRHKALFDYWGQGTLVTVSS
VL: EIVLTQSPATLSLSPGERATLSCRASQSVSSYLAWYQQKPGQAPRLLIYDASNRATGIPARFSGSGSGTDFTLTISSLEPEDFAVYYCQQRSNWPLTFGQGTKVEIK
notes: GC5B164 PTM variant, Hc GC5H257
B17: binds.

B18: GC5B490 (antibody, V domains shown)
VH: EVQLVQSGAEVKKPGESLKISCKGSGYSFTSYAIGWVRQMPGKGLEWMGIIYPGESDTRYSPSFQGQVTISADKSISTAYLQWSSLKASDTAMYYCARVYSFGGRHKALFDYWGQGTLVTVSS
VL: EIVLTQSPATLSLSPGERATLSCRASQSVSSYLAWYQQKPGQAPRLLIYDASNRATGIPARFSGSGSGTDFTLTISSLEPEDFAVYYCQQRSNWPLTFGQGTKVEIK
notes: GC5B164 PTM variant, Hc GC5H259
B18: binds.

B19: GC5B491 (antibody, V domains shown)
VH: EVQLVQSGAEVKKPGESLKISCKGSGYSFTSYYIGWVRQMPGKGLEWMGIIYPGYSDTRYSPSFQGQVTISADKSISTAYLQWSSLKASDTAMYYCARVYSFGGRHKALFDYWGQGTLVTVSS
VL: EIVLTQSPATLSLSPGERATLSCRASQSVSSYLAWYQQKPGQAPRLLIYDASNRATGIPARFSGSGSGTDFTLTISSLEPEDFAVYYCQQRSNWPLTFGQGTKVEIK
notes: GC5B164 PTM variant, Hc GC5H258
B19: binds.

B20: GC5B485 (antibody, V domains shown)
VH: EVQLVQSGAEVKKPGESLKISCKGSGYSFTSYAIGWVRQMPGKGLEWMGIIYPGKSDTRYSPSFQGQVTISADKSISTAYLQWSSLKASDTAMYYCARVYSFGGRHKALFDYWGQGTLVTVSS
VL: EIVLTQSPATLSLSPGERATLSCRASQSVSSYLAWYQQKPGQAPRLLIYDASNRATGIPARFSGSGSGTDFTLTISSLEPEDFAVYYCQQRSNWPLTFGQGTKVEIK
notes: GC5B164 PTM variant, Hc GC5H264
B20: binds.

B21: GC5B482 (antibody, V domains shown)
VH: EVQLVQSGAEVKKPGESLKISCKGSGYSFTSYVIGWVRQMPGKGLEWMGIIYPGKSDTRYSPSFQGQVTISADKSISTAYLQWSSLKASDTAMYYCARVYSFGGRHKALFDYWGQGTLVTVSS
VL: EIVLTQSPATLSLSPGERATLSCRASQSVSSYLAWYQQKPGQAPRLLIYDASNRATGIPARFSGSGSGTDFTLTISSLEPEDFAVYYCQQRSNWPLTFGQGTKVEIK
notes: GC5B164 PTM variant, Hc GC5H267
B21: binds.
